The results in this text go back to publication PMC314469, “Protein Interaction Networks by Proteome Peptide Scanning” (PLoS Biology, 2004).

For assay [1], the target named is T1, amphyphisin SH3 (AMPH_HUMAN), P49418.
T1 chain: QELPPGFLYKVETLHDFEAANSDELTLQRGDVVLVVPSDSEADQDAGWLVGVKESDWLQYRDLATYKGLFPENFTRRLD
Nature of the assay: SPOT array.

Assay [2] addresses endophilin SH3 (SH3G2_HUMAN), Q99962. Nature of the assay: SPOT array.

HHPWIRRPFFPFHS [P02511 6-19]: the normalised SPOT signal, Boehringer light units (BLU); mean over the file's lines of this peptide was found to be 17.6 in assay [1] and 1870 in assay [2].

On to HPGKPERPPPQGGN [P10163 94-108], for which the normalised SPOT signal, Boehringer light units (BLU); mean over the file's lines of this peptide in assay [1] is 57.4; in assay [2], 794.

With HHGRIGRPPKYRKI [Q9Y4C9 401-414], the normalised SPOT signal, Boehringer light units (BLU); mean over the file's lines of this peptide amounted to 160 in assay [1] and 150 in assay [2].

In the case of HSDYLNRPHKSIHR [P21675 1363-1376], the normalised SPOT signal, Boehringer light units (BLU); mean over the file's lines of this peptide in assay [1] turned out to be 116; in assay [2], 89.2.

For HGKGFSRPARPANR [O43158 529-542], the results for the normalised SPOT signal, Boehringer light units (BLU); mean over the file's lines of this peptide in assay [1] and in assay [2] were 3230 and 5.2, respectively.

On to ALPRPIRPHRNISA [O75163 275-288], for which the values for the normalised SPOT signal, Boehringer light units (BLU); mean over the file's lines of this peptide in assay [1] and in assay [2] were 7780 and 5490, respectively.

HPLVPKRPDASFMA [P54368 201-214]: the results for the normalised SPOT signal, Boehringer light units (BLU); mean over the file's lines of this peptide in assay [1] and in assay [2] were 125 and 1970, respectively.

In the case of HPDLLRRPGARSTS [Q9BXK1 213-226], the figures for the normalised SPOT signal, Boehringer light units (BLU); mean over the file's lines of this peptide in assay [1] and in assay [2] were 29.9 and 0.2, respectively.

HILLFRRPLPKKPK [P33551 65-78]: the normalised SPOT signal, Boehringer light units (BLU); mean over the file's lines of this peptide in assay [1] was determined as 34.4; in assay [2], 153.

Regarding HAQSLSRPLKQTPI [O60292 454-467], the normalised SPOT signal, Boehringer light units (BLU); mean over the file's lines of this peptide was determined as 58.3 in assay [1] and 153 in assay [2].

HILLFRRPLPKDQQ [P33552 65-78]: the normalised SPOT signal, Boehringer light units (BLU); mean over the file's lines of this peptide in assay [1] was determined as 12.1; in assay [2], 40.

Take HLHILHRPWKSGLS [Q9P2Y4 181-194]: the figures for the normalised SPOT signal, Boehringer light units (BLU); mean over the file's lines of this peptide in assay [1] and in assay [2] were 217 and 28.3, respectively.

In the case of HRSHLRRPAAPPSP [Q8WWE0 14-27], the normalised SPOT signal, Boehringer light units (BLU); mean over the file's lines of this peptide was 58 in assay [1] and 55.2 in assay [2].

For HLSSPARPPDNLSP [Q9H7P8 659-673], the normalised SPOT signal, Boehringer light units (BLU); mean over the file's lines of this peptide was 95.5 in assay [1] and 76.9 in assay [2].

Consider HGRAPRRPSGPGPP [P21917 231-244], for which the normalised SPOT signal, Boehringer light units (BLU); mean over the file's lines of this peptide in assay [1] amounted to 35.4; in assay [2] it was 11100.

Consider HGSFLARPSRKNQG [P29350 24-37], for which the normalised SPOT signal, Boehringer light units (BLU); mean over the file's lines of this peptide came to 2390 in assay [1] and 308 in assay [2].

Take HPEFLSRPIKPSPP [P17812 526-539]: the normalised SPOT signal, Boehringer light units (BLU); mean over the file's lines of this peptide in assay [1] was 75.1; in assay [2] it was 45.5.

For the molecule AAPEPKRPHIAQVP [Q9Y6X8 414-427], the normalised SPOT signal, Boehringer light units (BLU); mean over the file's lines of this peptide in assay [1] was 7.5; in assay [2], 108.

Take HLWQPKRPAVPKKA [Q96FM3 493-506]: the normalised SPOT signal, Boehringer light units (BLU); mean over the file's lines of this peptide came out at 17.3 in assay [1] and 816 in assay [2].

Regarding GYQAFRRPSYSWGV [O14842 113-126], the normalised SPOT signal, Boehringer light units (BLU); mean over the file's lines of this peptide in assay [1] is 35; in assay [2], 229.

With ALPPPPRPDRGPPG [Q02833 302-315], the normalised SPOT signal, Boehringer light units (BLU); mean over the file's lines of this peptide came out at 847 in assay [1] and 4520 in assay [2].

In the case of GYTGPPRPPPYGYQ [Q15427 383-397], the results for the normalised SPOT signal, Boehringer light units (BLU); mean over the file's lines of this peptide in assay [1] and in assay [2] were 61.8 and 577, respectively.

Consider HIPPPPRPPKRILE [P18031 304-318], for which the normalised SPOT signal, Boehringer light units (BLU); mean over the file's lines of this peptide in assay [1] turned out to be 3540; in assay [2], 4140.

On to HLAFLKRPELGLTL [O15488 104-117], for which the figures for the normalised SPOT signal, Boehringer light units (BLU); mean over the file's lines of this peptide in assay [1] and in assay [2] were 36.5 and 28.8, respectively.

Take HLLLFHRPLRASGA [Q9HBK7 243-256]: the normalised SPOT signal, Boehringer light units (BLU); mean over the file's lines of this peptide in assay [1] is 1690; in assay [2] it was 33.5.

As for ALPRPLRPPLPPDP [O43763 237-251], the normalised SPOT signal, Boehringer light units (BLU); mean over the file's lines of this peptide was 553 in assay [1] and 3470 in assay [2].

As to ALPLPRRPSALPPK [Q96MH8 48-61], the normalised SPOT signal, Boehringer light units (BLU); mean over the file's lines of this peptide was found to be 151 in assay [1] and 5800 in assay [2].

Regarding HGRGLKRPGKKGSN [Q99848 277-290], the normalised SPOT signal, Boehringer light units (BLU); mean over the file's lines of this peptide in assay [1] was found to be 26; in assay [2], 71.6.

In the case of HKAHLIRPRRLTPG [O60281 1125-1138], the normalised SPOT signal, Boehringer light units (BLU); mean over the file's lines of this peptide in assay [1] came out at 1070; in assay [2], 1790.

As to HALHPARPARDHLD [Q9H7M8 395-408], the results for the normalised SPOT signal, Boehringer light units (BLU); mean over the file's lines of this peptide in assay [1] and in assay [2] were 4580 and 1270, respectively.

As for HQEKPERPLRGGKS [Q9NWA6 173-186], the normalised SPOT signal, Boehringer light units (BLU); mean over the file's lines of this peptide was determined as 9960 in assay [1] and 2060 in assay [2].

As for HGRLPARPPFYAPA [Q9Y2L9 5-19], the figures for the normalised SPOT signal, Boehringer light units (BLU); mean over the file's lines of this peptide in assay [1] and in assay [2] were 33.8 and 775, respectively.

As to HHHLPERPPFIPEG [O60747 405-419], the figures for the normalised SPOT signal, Boehringer light units (BLU); mean over the file's lines of this peptide in assay [1] and in assay [2] were 18 and 22.2, respectively.

Consider HDDPPQKPPRSITL [Q9Y5K9 654-668], for which the normalised SPOT signal, Boehringer light units (BLU); mean over the file's lines of this peptide in assay [1] stood at 8230; in assay [2], 133.

Take HKGLPPRPPSHNRP [Q9P2Q2 580-594]: the normalised SPOT signal, Boehringer light units (BLU); mean over the file's lines of this peptide in assay [1] was determined as 326; in assay [2], 5020.

Consider HSFLINRPGKVKYM [Q9H5T1 190-203], for which the normalised SPOT signal, Boehringer light units (BLU); mean over the file's lines of this peptide came out at 202 in assay [1] and 117 in assay [2].

For the molecule HAPRIKRPRLQVVK [Q96S08 292-305], the normalised SPOT signal, Boehringer light units (BLU); mean over the file's lines of this peptide in assay [1] was found to be 36.2; in assay [2], 33.2.

For GYPAFKRPHMTAKD [Q96LM6 67-80], the normalised SPOT signal, Boehringer light units (BLU); mean over the file's lines of this peptide in assay [1] is 31.1; in assay [2], 97.4.
